One assay deals with tetO DNA. In words: DNA retardation experiment with radioactively labeled tetO DNA. Type of assay: binding. Conditions: produced in HeLa cells; compared with rtTA2. The source says:
Cellular material from cells transfected as described above was also used to compare the binding of rtTA2-34R and rtTA2 (rtTA fused to 3 minimal activation domains) to operator DNA in DNA retardation experiments.
rtTA2 and rtTA2-34R^S were produced in HeLa cells and exposed to radioactively labeled tetO DNA in presence (+) and absence (−) of Dox.

In another assay the test system is luciferase activity. Put plainly: Doxycycline-dependent regulation of luciferase in HeLa cells, transient transfection of rtTA2-34R^S or rtTA2. It counts as cell-based. From the text: The synthetic gene encoding rtTA2-34R^S was cloned into pUHD15-1 and expression was examined in HeLa cells.

B1: rtTA2-34R^S: first 206 amino acids of rtTA-34R fused to 3 minimal VP-16 activation domains (FFF), synthetic gene with human codon frequencies, SEQ ID NO: 5 (protein)
chain: MSRLDKSKVINSALELLNGVGIEGLTTRKLAQKLGVEQPTLYWHVKNKRALLDALPIEMLDRHHTHFCPLEGESWQDFLRNNAKSFRCALLSHRDGAKVHLGTRPTEKQYETLENQLAFLCQQGFSLENALYALSAVGHFTLGCVLEEQEHQVAKEERETPTTDSMPPLLRQAIELFDRQGAEPAFLFGLELIICGLEKQLKCESGGPADALDDFDLDMLPADALDDFDLDMLPADALDDFDLDMLPG
As for B1, the “residual binding to operator DNA (binding in the absence of Dox)” value with tetO DNA is recorded as “greatly reduced”. Besides, the “induction in cells treated with Dox” value in the assay with luciferase activity is listed as “up to 20 fold”. Also, in the assay on luciferase activity (+ Dox), the “luciferase activity in relative light units, + Dox” value came out at 20.325. In addition, the “luciferase activity in relative light units, − Dox” value in the assay with luciferase activity (− Dox) was found to be 1.

These data come from patent publication US7541446B2, “Tet repressor-based transcriptional regulatory proteins” (Tet Systems Holding GmbH & Co. KG, priority 1999, dated 2009).
